Reference: paper doi:10.1101/138099 (bioRxiv, 2017)
Changes are numbered by the printed parent chain. Names may count otherwise. “And” between values parts separate entries of the source, which are not always exact repeats. Equal entries are not always repeated.

Key:
[1] = biological target: YweA_(BslA171-181), recombinant chimeric protein (Bacillus subtilis); assay: SEC + other: non-reducing SDS-PAGE
[2] = biological target: YweA_(BslA171-181 C180A), recombinant chimeric protein (Bacillus subtilis) (UniProt P71014); assay: non-reducing SDS-PAGE
[3] = biological target: YweA_(BslA171-181 C178A), recombinant chimeric protein (Bacillus subtilis) (UniProt P71014); assay: non-reducing SDS-PAGE
cross-linking = biological target: the molecule itself; assay: cross-linking
[4] = biological target: the molecule itself; assay: SEC + other: non-reducing SDS-PAGE

## YweA_(BslA171-181), recombinant chimeric protein
[1]
  stoichiometry N: 2

## YweA_(BslA171-181 C180A), recombinant chimeric protein (from UniProt P71014 171-181)
[2]
  stoichiometry N: 2

## YweA_(BslA171-181 C178A), recombinant chimeric protein (from UniProt P71014 171-181)
[3]
  stoichiometry N: 2

B1: BslA, wild type, from the B. subtilis NCIB3610 biofilm (natural protein, UniProt P71014 29-181, looked up)
chain: AESTSTKAHTESTMRTQSTASLFATITGASKTEWSFSDIELTYRPNTLLSLGVMEFTLPSGFTANTKDTLNGNALRTTQILNNGKTVRVPLALDLLGAGEFKLKLNNKTLPAAGTYTFRAENKSLSIGNKFYAEASIDVAKRSTPPTQPCGCN
cross-linking
  stoichiometry N: 2 and 4

B2: BslA_(C178A) produced in the B. subtilis bslA deletion strain (NRS5177) (natural protein, Bacillus subtilis, UniProt P71014 29-181, looked up)
chain: B1 chain with C150A
cross-linking
  stoichiometry N: 2

B3: BslA_(C180A) produced in the B. subtilis bslA deletion strain (NRS5178) (natural protein, Bacillus subtilis, UniProt P71014 29-181, looked up)
chain: B1 chain with C152A
cross-linking
  stoichiometry N: 2

B4: Recombinant BslA_(42-181) (domain or fragment, Bacillus subtilis, UniProt P71014 42-181, looked up)
chain: MRTQSTASLFATITGASKTEWSFSDIELTYRPNTLLSLGVMEFTLPSGFTANTKDTLNGNALRTTQILNNGKTVRVPLALDLLGAGEFKLKLNNKTLPAAGTYTFRAENKSLSIGNKFYAEASIDVAKRSTPPTQPCGCN
[4]
  stoichiometry N: 2 and 4

B5: BslA_(C180A), recombinant BslA_(42-181) variant (domain or fragment, Bacillus subtilis, UniProt P71014 42-181, looked up)
chain: B4 chain with C139A
[4]
  stoichiometry N: 2

B6: BslA_(C178A), recombinant BslA_(42-181) variant (domain or fragment, Bacillus subtilis, UniProt P71014 42-181, looked up)
chain: B4 chain with C137A
[4]
  stoichiometry N: 2
